Laboratory results from paper PMC3218234.

Tests used:
Assay in all cases: SPR
Conditions in all cases: remark: other sources report otherwise
[1] = target: human IgG1-Fc homodimer glycoform Fc-5 (Man3GlcNAc2) (human)
[2] = target: wild type recombinant human IgG1-Fc homodimer carrying fucosylated complex type N-glycans (CT-Fc) (human)
[3] = target: human IgG1-Fc homodimer glycoform Fc-1 (bisecting-GlcNAc-Man3GlcNAc2) (human)

- Kd [1]: 2.9 µM
- Kd [2]: 2.1 µM
- Kd [3]: 2.2 µM
B1: FcγRIIb, P31994 43-310 (receptor)
chain: TPAAPPKAVLKLEPQWINVLQEDSVTLTCRGTHSPESDSIQWFHNGNLIPTHTQPSYRFKANNNDSGEYTCQTGQTSLSDPVHLTVLSEWLVLQTPHLEFQEGETIVLRCHSWKDKPLVKVTFFQNGKSKKFSRSDPNFSIPQANHSHSGDYHCTGNIGYTLYSSKPVTITVQAP
modifications: not checked
